Target: T1, purified HAstV-8 virus particles (strain Yuc-8) (human astrovirus serotype 8 (HAstV-8), strain Yuc-8) (UniProt Q9IFX1)
T1 sequence 1: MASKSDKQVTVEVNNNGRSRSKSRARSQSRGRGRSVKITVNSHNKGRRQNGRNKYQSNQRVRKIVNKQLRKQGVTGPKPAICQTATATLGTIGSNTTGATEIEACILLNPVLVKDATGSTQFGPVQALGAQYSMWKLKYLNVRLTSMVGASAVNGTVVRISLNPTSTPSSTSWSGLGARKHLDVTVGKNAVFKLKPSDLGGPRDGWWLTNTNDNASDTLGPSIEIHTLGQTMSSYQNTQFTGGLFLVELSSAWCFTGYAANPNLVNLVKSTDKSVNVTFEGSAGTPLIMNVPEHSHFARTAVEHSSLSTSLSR
T1 sequence 2: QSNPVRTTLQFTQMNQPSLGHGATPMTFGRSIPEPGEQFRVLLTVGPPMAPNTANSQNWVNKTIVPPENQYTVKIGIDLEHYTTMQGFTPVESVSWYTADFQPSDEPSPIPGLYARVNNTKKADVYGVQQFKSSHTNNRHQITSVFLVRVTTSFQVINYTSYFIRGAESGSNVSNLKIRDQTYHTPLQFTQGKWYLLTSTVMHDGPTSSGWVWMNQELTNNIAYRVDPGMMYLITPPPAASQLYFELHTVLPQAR

Sequence of recombinant human FCGRT & B2M heterodimer protein (SinoBiological #CT009-H08H) (P55899 24-297): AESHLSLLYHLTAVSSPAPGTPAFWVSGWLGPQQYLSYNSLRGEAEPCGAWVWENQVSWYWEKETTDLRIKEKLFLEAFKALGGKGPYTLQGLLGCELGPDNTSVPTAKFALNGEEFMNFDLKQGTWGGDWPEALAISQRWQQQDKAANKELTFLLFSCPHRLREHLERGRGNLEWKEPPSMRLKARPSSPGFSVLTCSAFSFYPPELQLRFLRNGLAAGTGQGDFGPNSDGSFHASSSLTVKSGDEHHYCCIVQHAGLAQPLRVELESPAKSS
Sequence of recombinant human FCGRT & B2M heterodimer protein (SinoBiological #CT009-H08H) (P61769 21-119): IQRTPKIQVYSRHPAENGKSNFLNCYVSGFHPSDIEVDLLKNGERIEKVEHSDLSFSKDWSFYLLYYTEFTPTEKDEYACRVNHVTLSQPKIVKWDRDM

## recombinant human FCGRT & B2M heterodimer protein (SinoBiological #CT009-H08H) (from UniProt P55899 24-297; P61769 21-119) (receptor)
  FcRn concentration that lowers by 50% the infectivity of the WT chimeric HAstV-1/HAstV-8 virus in Caco-2 cells (neutralization assay with different concentrations of FcRn): 100 ng/mL

Source: paper PMC12289001
